Measurements taken from patent US12679878B2, “CRF2 receptor agonists and their use in therapy” (SANOFI, priority 2020, dated 2026).
Starred links: 1 amine or outer side, 2 acyl side, 3 side chain; linkers in the order of their positions; H or OH if unused. Non-standard residues stand in square brackets, D forms with d. Groups on a side chain read outwards from the residue. No end group written: not given here. *: point of attachment. C18 diacid = O=C(O)CCCCCCCCCCCCCCCCC(=O)*; γGlu = O=C(O)[C@H](CCC(=O)[*:2])N[*:1]; Palmitoyl = CCCCCCCCCCCCCCCC(=O)*; AEEA = NCCOCCOCC(=O)O; Aib = CC(C)(N)C(=O)O

Target: human corticotropin-releasing factor 2α (CRF2 α receptor) (human), Q13324
Experiment: cell-based or functional assay

Chain of human corticotropin-releasing factor 2α (CRF2 α receptor) (human), Q13324 (Q13324 20-411): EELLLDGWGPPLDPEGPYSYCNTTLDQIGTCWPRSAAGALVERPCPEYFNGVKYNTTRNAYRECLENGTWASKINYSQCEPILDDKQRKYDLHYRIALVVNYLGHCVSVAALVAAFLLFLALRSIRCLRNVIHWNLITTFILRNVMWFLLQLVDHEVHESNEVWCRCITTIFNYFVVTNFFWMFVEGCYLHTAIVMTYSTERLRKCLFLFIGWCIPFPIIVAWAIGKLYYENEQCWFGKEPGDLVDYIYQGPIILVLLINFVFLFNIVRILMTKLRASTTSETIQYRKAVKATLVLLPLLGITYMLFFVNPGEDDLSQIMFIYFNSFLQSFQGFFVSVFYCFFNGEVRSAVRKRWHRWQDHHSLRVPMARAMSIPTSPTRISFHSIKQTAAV

B1: SEQ ID NO: 161 (peptide)
peptide: Ac-IVLSLD[dV]PIKLK([AEEA-AEEA-γGlu-C18 diacid])QILLEQERQE[Aib]EREQAEKNEQILEQV-NH2
SMILES: CC[C@H](C)[C@H](NC(C)=O)C(=O)N[C@H](C(=O)N[C@@H](CC(C)C)C(=O)N[C@@H](CO)C(=O)N[C@@H](CC(C)C)C(=O)N[C@@H](CC(=O)O)C(=O)N[C@@H](C(=O)N1CCC[C@H]1C(=O)N[C@H](C(=O)N[C@@H](CCCCN)C(=O)N[C@@H](CC(C)C)C(=O)N[C@@H](CCCCNC(=O)COCCOCCNC(=O)COCCOCCNC(=O)CC[C@H](NC(=O)CCCCCCCCCCCCCCCCC(=O)O)C(=O)O)C(=O)N[C@@H](CCC(N)=O)C(=O)N[C@H](C(=O)N[C@@H](CC(C)C)C(=O)N[C@@H](CC(C)C)C(=O)N[C@@H](CCC(=O)O)C(=O)N[C@@H](CCC(N)=O)C(=O)N[C@@H](CCC(=O)O)C(=O)N[C@@H](CCCNC(=N)N)C(=O)N[C@@H](CCC(N)=O)C(=O)N[C@@H](CCC(=O)O)C(=O)NC(C)(C)C(=O)N[C@@H](CCC(=O)O)C(=O)N[C@@H](CCCNC(=N)N)C(=O)N[C@@H](CCC(=O)O)C(=O)N[C@@H](CCC(N)=O)C(=O)N[C@@H](C)C(=O)N[C@@H](CCC(=O)O)C(=O)N[C@@H](CCCCN)C(=O)N[C@@H](CC(N)=O)C(=O)N[C@@H](CCC(=O)O)C(=O)N[C@@H](CCC(N)=O)C(=O)N[C@H](C(=O)N[C@@H](CC(C)C)C(=O)N[C@@H](CCC(=O)O)C(=O)N[C@@H](CCC(N)=O)C(=O)N[C@H](C(N)=O)C(C)C)[C@@H](C)CC)[C@@H](C)CC)[C@@H](C)CC)C(C)C)C(C)C
EC50 [nM], 0% HSA: 36 nM
EC50 [nM], 0.1% HSA: 977 nM

B2: SEQ ID NO: 159 (peptide)
peptide: Ac-IVLSLD[dV]PIKLK([AEEA-AEEA-γGlu-C18 diacid])QILLEQERQE[Aib]QREQAEKNKQILEQV-NH2
SMILES: CC[C@H](C)[C@H](NC(C)=O)C(=O)N[C@H](C(=O)N[C@@H](CC(C)C)C(=O)N[C@@H](CO)C(=O)N[C@@H](CC(C)C)C(=O)N[C@@H](CC(=O)O)C(=O)N[C@@H](C(=O)N1CCC[C@H]1C(=O)N[C@H](C(=O)N[C@@H](CCCCN)C(=O)N[C@@H](CC(C)C)C(=O)N[C@@H](CCCCNC(=O)COCCOCCNC(=O)COCCOCCNC(=O)CC[C@H](NC(=O)CCCCCCCCCCCCCCCCC(=O)O)C(=O)O)C(=O)N[C@@H](CCC(N)=O)C(=O)N[C@H](C(=O)N[C@@H](CC(C)C)C(=O)N[C@@H](CC(C)C)C(=O)N[C@@H](CCC(=O)O)C(=O)N[C@@H](CCC(N)=O)C(=O)N[C@@H](CCC(=O)O)C(=O)N[C@@H](CCCNC(=N)N)C(=O)N[C@@H](CCC(N)=O)C(=O)N[C@@H](CCC(=O)O)C(=O)NC(C)(C)C(=O)N[C@@H](CCC(N)=O)C(=O)N[C@@H](CCCNC(=N)N)C(=O)N[C@@H](CCC(=O)O)C(=O)N[C@@H](CCC(N)=O)C(=O)N[C@@H](C)C(=O)N[C@@H](CCC(=O)O)C(=O)N[C@@H](CCCCN)C(=O)N[C@@H](CC(N)=O)C(=O)N[C@@H](CCCCN)C(=O)N[C@@H](CCC(N)=O)C(=O)N[C@H](C(=O)N[C@@H](CC(C)C)C(=O)N[C@@H](CCC(=O)O)C(=O)N[C@@H](CCC(N)=O)C(=O)N[C@H](C(N)=O)C(C)C)[C@@H](C)CC)[C@@H](C)CC)[C@@H](C)CC)C(C)C)C(C)C
EC50 [nM], 0% HSA: 1.27 nM
EC50 [nM], 0.1% HSA: 27.4 nM

B3: SEQ ID NO: 160 (peptide)
peptide: Ac-IVLSLD[dV]PIKLK([AEEA-AEEA-γGlu-C18 diacid])QILLEQERQE[Aib]EREQAETNKQILEQV-NH2
SMILES: CC[C@H](C)[C@H](NC(C)=O)C(=O)N[C@H](C(=O)N[C@@H](CC(C)C)C(=O)N[C@@H](CO)C(=O)N[C@@H](CC(C)C)C(=O)N[C@@H](CC(=O)O)C(=O)N[C@@H](C(=O)N1CCC[C@H]1C(=O)N[C@H](C(=O)N[C@@H](CCCCN)C(=O)N[C@@H](CC(C)C)C(=O)N[C@@H](CCCCNC(=O)COCCOCCNC(=O)COCCOCCNC(=O)CC[C@H](NC(=O)CCCCCCCCCCCCCCCCC(=O)O)C(=O)O)C(=O)N[C@@H](CCC(N)=O)C(=O)N[C@H](C(=O)N[C@@H](CC(C)C)C(=O)N[C@@H](CC(C)C)C(=O)N[C@@H](CCC(=O)O)C(=O)N[C@@H](CCC(N)=O)C(=O)N[C@@H](CCC(=O)O)C(=O)N[C@@H](CCCNC(=N)N)C(=O)N[C@@H](CCC(N)=O)C(=O)N[C@@H](CCC(=O)O)C(=O)NC(C)(C)C(=O)N[C@@H](CCC(=O)O)C(=O)N[C@@H](CCCNC(=N)N)C(=O)N[C@@H](CCC(=O)O)C(=O)N[C@@H](CCC(N)=O)C(=O)N[C@@H](C)C(=O)N[C@@H](CCC(=O)O)C(=O)N[C@H](C(=O)N[C@@H](CC(N)=O)C(=O)N[C@@H](CCCCN)C(=O)N[C@@H](CCC(N)=O)C(=O)N[C@H](C(=O)N[C@@H](CC(C)C)C(=O)N[C@@H](CCC(=O)O)C(=O)N[C@@H](CCC(N)=O)C(=O)N[C@H](C(N)=O)C(C)C)[C@@H](C)CC)[C@@H](C)O)[C@@H](C)CC)[C@@H](C)CC)C(C)C)C(C)C
EC50 [nM], 0% HSA: 8.56 nM
EC50 [nM], 0.1% HSA: 28.9 nM

B4: SEQ ID NO: 18 (peptide)
peptide: IVLSLD[dV]PTKLK([γGlu-Palmitoyl])QKLLKQERQRKEREQAEKNKRILERV-NH2
modifications: N-terminus assumed
SMILES: CCCCCCCCCCCCCCCC(=O)N[C@@H](CCC(=O)NCCCC[C@H](NC(=O)[C@H](CC(C)C)NC(=O)[C@H](CCCCN)NC(=O)[C@@H](NC(=O)[C@@H]1CCCN1C(=O)[C@H](NC(=O)[C@H](CC(=O)O)NC(=O)[C@H](CC(C)C)NC(=O)[C@H](CO)NC(=O)[C@H](CC(C)C)NC(=O)[C@@H](NC(=O)[C@@H](N)[C@@H](C)CC)C(C)C)C(C)C)[C@@H](C)O)C(=O)N[C@@H](CCC(N)=O)C(=O)N[C@@H](CCCCN)C(=O)N[C@@H](CC(C)C)C(=O)N[C@@H](CC(C)C)C(=O)N[C@@H](CCCCN)C(=O)N[C@@H](CCC(N)=O)C(=O)N[C@@H](CCC(=O)O)C(=O)N[C@@H](CCCNC(=N)N)C(=O)N[C@@H](CCC(N)=O)C(=O)N[C@@H](CCCNC(=N)N)C(=O)N[C@@H](CCCCN)C(=O)N[C@@H](CCC(=O)O)C(=O)N[C@@H](CCCNC(=N)N)C(=O)N[C@@H](CCC(=O)O)C(=O)N[C@@H](CCC(N)=O)C(=O)N[C@@H](C)C(=O)N[C@@H](CCC(=O)O)C(=O)N[C@@H](CCCCN)C(=O)N[C@@H](CC(N)=O)C(=O)N[C@@H](CCCCN)C(=O)N[C@@H](CCCNC(=N)N)C(=O)N[C@H](C(=O)N[C@@H](CC(C)C)C(=O)N[C@@H](CCC(=O)O)C(=O)N[C@@H](CCCNC(=N)N)C(=O)N[C@H](C(N)=O)C(C)C)[C@@H](C)CC)C(=O)O
EC50 [nM], 0% HSA: 0.03 nM

B5: SEQ ID NO: 158 (peptide)
peptide: Ac-IVLSLD[dV]PIKLK([AEEA-AEEA-γGlu-C18 diacid])QILLEQERQK[Aib]QREQAEKNKQILEQV-NH2
SMILES: CC[C@H](C)[C@H](NC(C)=O)C(=O)N[C@H](C(=O)N[C@@H](CC(C)C)C(=O)N[C@@H](CO)C(=O)N[C@@H](CC(C)C)C(=O)N[C@@H](CC(=O)O)C(=O)N[C@@H](C(=O)N1CCC[C@H]1C(=O)N[C@H](C(=O)N[C@@H](CCCCN)C(=O)N[C@@H](CC(C)C)C(=O)N[C@@H](CCCCNC(=O)COCCOCCNC(=O)COCCOCCNC(=O)CC[C@H](NC(=O)CCCCCCCCCCCCCCCCC(=O)O)C(=O)O)C(=O)N[C@@H](CCC(N)=O)C(=O)N[C@H](C(=O)N[C@@H](CC(C)C)C(=O)N[C@@H](CC(C)C)C(=O)N[C@@H](CCC(=O)O)C(=O)N[C@@H](CCC(N)=O)C(=O)N[C@@H](CCC(=O)O)C(=O)N[C@@H](CCCNC(=N)N)C(=O)N[C@@H](CCC(N)=O)C(=O)N[C@@H](CCCCN)C(=O)NC(C)(C)C(=O)N[C@@H](CCC(N)=O)C(=O)N[C@@H](CCCNC(=N)N)C(=O)N[C@@H](CCC(=O)O)C(=O)N[C@@H](CCC(N)=O)C(=O)N[C@@H](C)C(=O)N[C@@H](CCC(=O)O)C(=O)N[C@@H](CCCCN)C(=O)N[C@@H](CC(N)=O)C(=O)N[C@@H](CCCCN)C(=O)N[C@@H](CCC(N)=O)C(=O)N[C@H](C(=O)N[C@@H](CC(C)C)C(=O)N[C@@H](CCC(=O)O)C(=O)N[C@@H](CCC(N)=O)C(=O)N[C@H](C(N)=O)C(C)C)[C@@H](C)CC)[C@@H](C)CC)[C@@H](C)CC)C(C)C)C(C)C
EC50 [nM], 0% HSA: 0.42 nM
EC50 [nM], 0.1% HSA: 5.63 nM

B6: SEQ ID NO: 157 (peptide)
peptide: Ac-IVLSLD[dV]PIKLK([AEEA-AEEA-γGlu-C18 diacid])QILLEQARQK[Aib]QREQAEKNKQILEQV-NH2
SMILES: CC[C@H](C)[C@H](NC(C)=O)C(=O)N[C@H](C(=O)N[C@@H](CC(C)C)C(=O)N[C@@H](CO)C(=O)N[C@@H](CC(C)C)C(=O)N[C@@H](CC(=O)O)C(=O)N[C@@H](C(=O)N1CCC[C@H]1C(=O)N[C@H](C(=O)N[C@@H](CCCCN)C(=O)N[C@@H](CC(C)C)C(=O)N[C@@H](CCCCNC(=O)COCCOCCNC(=O)COCCOCCNC(=O)CC[C@H](NC(=O)CCCCCCCCCCCCCCCCC(=O)O)C(=O)O)C(=O)N[C@@H](CCC(N)=O)C(=O)N[C@H](C(=O)N[C@@H](CC(C)C)C(=O)N[C@@H](CC(C)C)C(=O)N[C@@H](CCC(=O)O)C(=O)N[C@@H](CCC(N)=O)C(=O)N[C@@H](C)C(=O)N[C@@H](CCCNC(=N)N)C(=O)N[C@@H](CCC(N)=O)C(=O)N[C@@H](CCCCN)C(=O)NC(C)(C)C(=O)N[C@@H](CCC(N)=O)C(=O)N[C@@H](CCCNC(=N)N)C(=O)N[C@@H](CCC(=O)O)C(=O)N[C@@H](CCC(N)=O)C(=O)N[C@@H](C)C(=O)N[C@@H](CCC(=O)O)C(=O)N[C@@H](CCCCN)C(=O)N[C@@H](CC(N)=O)C(=O)N[C@@H](CCCCN)C(=O)N[C@@H](CCC(N)=O)C(=O)N[C@H](C(=O)N[C@@H](CC(C)C)C(=O)N[C@@H](CCC(=O)O)C(=O)N[C@@H](CCC(N)=O)C(=O)N[C@H](C(N)=O)C(C)C)[C@@H](C)CC)[C@@H](C)CC)[C@@H](C)CC)C(C)C)C(C)C
EC50 [nM], 0% HSA: 0.12 nM
EC50 [nM], 0.1% HSA: 2.53 nM
